Results as given in PMC3919607 (Nucleic Acids Research, 2013).
Values belong to the binder of their own block, whether it stands above or below them.

B1: Snu13p (recombinant, GST cleaved off) (natural protein, S. cerevisiae)
chain: GPMSAPNPKAFPLADAALTQQILDVVQQAANLRQLKKGANEATKTLNRGISEFIIMAADCEPIEILLHLPLLCEDKNVPYVFVPSRVALGRACGVSRPVIAASITTNDASAIKTQIYAVKDKIETLLI

Experiments:
His6Rsa1p230–381 = molecular target: T1, His6Rsa1p230–381 (S. cerevisiae, UniProt Q08932 230-381); assay: native gel or EMSA
T1 sequence (looked up): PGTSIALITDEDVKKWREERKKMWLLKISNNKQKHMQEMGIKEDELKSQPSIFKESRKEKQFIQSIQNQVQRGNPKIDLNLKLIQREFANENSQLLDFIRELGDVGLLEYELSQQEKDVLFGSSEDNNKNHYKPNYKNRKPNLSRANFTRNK

[1] = molecular target: T2, His6-tagged WT Snu13p (co-expression) (S. cerevisiae, UniProt P39990 1-126); assay: pull-down
T2 sequence (looked up): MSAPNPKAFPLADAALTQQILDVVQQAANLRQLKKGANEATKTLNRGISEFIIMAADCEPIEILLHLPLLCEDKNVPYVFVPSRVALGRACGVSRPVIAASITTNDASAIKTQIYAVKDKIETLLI

[2] = molecular target: B1; assay: ITC

Binder: B1
binding result (His6Rsa1p230–381): binds

stoichiometry N [1]: ~1
B2: full-length Rsa1p (co-expression) (natural protein, S. cerevisiae, UniProt Q08932 1-381, looked up)
chain: MNYNNFENSKGDGHSRLPKPTYSGTLSDGYDESKIKRQKTDSAFNAAYSPHMYPNSPYYEGSWNTGYTPQLHHVAPHNQYFHPIQPSTQYNYTSPPNYTENYIPPVHQNISYAPALNLQKWPSSYCENTQALKNDKDYQTSISYEDVAIPTVKEIQLIEKNRGKDTFMNEISPVPSSKDQASAEPTEIPRKDPELANSNAEDDHNNLGLEDDDRDEQLESEGLGKVVLVPGTSIALITDEDVKKWREERKKMWLLKISNNKQKHMQEMGIKEDELKSQPSIFKESRKEKQFIQSIQNQVQRGNPKIDLNLKLIQREFANENSQLLDFIRELGDVGLLEYELSQQEKDVLFGSSEDNNKNHYKPNYKNRKPNLSRANFTRNK

Kd [2]: 18 ± 1 µM
B3: synthetic peptide Rsa1p238–259 (peptide, UniProt Q08932 238-259, looked up)
peptide: TDEDVKKWREERKKMWLLKISN
